Measured values: patent US20210403565A1 (BIOATLA, published 2021)
Blank lines part the entries; values can stand above or below the binder they belong to.

Experiments:
[1] = biological target: T1, human CTLA4 expressed on the cell surface of CHO cells (human, UniProt P16410 36-223); experiment: FACS, cells expressing human CTLA4, assay pH 7.4, MFI; lot 6972 in Glu buffer, T0; unit from the axis Log[ng/mL]
T1 construct: whole, on cells; also called CHO-huCTLA4; huCTLA4
T1 sequence (looked up): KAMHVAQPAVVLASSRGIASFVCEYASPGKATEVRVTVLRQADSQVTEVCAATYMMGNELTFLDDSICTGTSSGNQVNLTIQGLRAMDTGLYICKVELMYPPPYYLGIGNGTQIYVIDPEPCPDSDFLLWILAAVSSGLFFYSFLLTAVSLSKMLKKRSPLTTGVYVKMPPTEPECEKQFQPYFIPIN
Procedure: (§1) The amount of bound antibodies was quantified using anti-human IgG antibody conjugated to fluorophores. The MFI in each reaction was proportional to the amount of antibodies bound. The EC₅₀ value (in ng/mL) for binding to human CTLA4 on cells was determined by MFI of the singlets population against antibody concentration with a Prism variable slope of four-parameter dose-response curve, which was calculated using the nonlinear fit (variable slope, four parameters) model built into GraphPad Prism software (version 7.03).

[2] = biological target: T1, human CTLA4 expressed on the cell …; experiment: FACS, cells expressing human CTLA4, assay pH 7.4, MFI; lot 6972 control without test buffer; same column repeated in FIG. 10B and FIG. 10C; unit from the axis Log[ng/mL]
Procedure: as §1

[3] = biological target: T2, recombinant human CTLA4 extracellular domain (human, UniProt P16410 36-161); experiment: ELISA, wells coated with human CTLA4, assay pH 6.0; lot 6972 in Tris buffer, T2W; unit from the axis Log[ng/mL]
T2 construct: extracellular domain; also called huCTLA-4
T2 sequence (looked up): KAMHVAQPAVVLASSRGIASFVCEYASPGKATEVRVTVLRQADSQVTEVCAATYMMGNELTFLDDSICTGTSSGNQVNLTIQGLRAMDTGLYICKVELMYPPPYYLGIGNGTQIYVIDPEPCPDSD
Procedure: (§2) Both ELISA and FACS analysis were used to measure the binding activity. […] The amount of bound antibodies was quantified using anti-human IgG antibody conjugated to HRP. The absorbance at 450 nm in each measurement was proportional to the amount of antibodies bound. […] EC50 value (in ng/mL) for binding to human CTLA4 was determined by absorbance at 450 nm against antibody concentration with Prism variable slope of four-parameter dose-response curve, which was calculated using the nonlinear fit (variable slope, four parameters) model built into GraphPad Prism software (version 7.03). The buffers tested included His buffer (His), Tris buffer (Tris), Glutamine buffer (Glu) and no buffer.

[4] = biological target: T1, human CTLA4 expressed on the cell …; experiment: FACS, cells expressing human CTLA4, assay pH 7.4, MFI; lot 6972 in Tris buffer, T2W; unit from the axis Log[ng/mL]
Procedure: as §1

[5] = biological target: T1, human CTLA4 expressed on the cell …; experiment: FACS, cells expressing human CTLA4, assay pH 7.4, MFI; lot 6972 in His buffer, T2W; unit from the axis Log[ng/mL]
Procedure: as §1

[6] = biological target: T2, recombinant human CTLA4 extracellular …; experiment: ELISA, wells coated with human CTLA4, assay pH 7.4; lot 6972 in Tris buffer, T2W; unit from the axis Log[ng/mL]
Procedure: as §2

[7] = biological target: T1, human CTLA4 expressed on the cell …; experiment: FACS, CHO cells expressing human CTLA4 (CHO-huCTLA-4), pH 7.4, MFI; no unit in the table, unit from the axis Log Antibodies [ng/ml]
Procedure: The amount of antibodies bound on the cells was quantified using anti-human IgG antibody conjugated to fluorophores. EC₅₀ values at pH 6.0 and 7.4 for binding to cells were calculated using the nonlinear fit (variable slope, four parameters) model built into GraphPad Prism software (version 7.03). The expression levels of human CTLA4 or cynomolgus CTLA4 on the surface of the CHO cells were determined using a BD QuantiBRITE™ PE kit.
At least two independent duplicate FACS experiments were performed for each antibody using each of the cell lines. The binding activities at different concentrations of the antibodies are plotted in these figures.

[8] = biological target: T2, recombinant human CTLA4 extracellular …; experiment: ELISA, wells coated with human CTLA4, assay pH 6.0; lot 6972 in His buffer, T0; unit from the axis Log[ng/mL]
Procedure: as §2

[9] = biological target: T1, human CTLA4 expressed on the cell …; experiment: FACS, cells expressing human CTLA4, assay pH 6.0, MFI; lot 6978 control without test buffer; same column repeated in FIG. 10E and FIG. 10F; unit from the axis Log[ng/mL]
Procedure: as §1

[10] = biological target: T2, recombinant human CTLA4 extracellular …; experiment: ELISA, wells coated with human CTLA4, assay pH 7.4; lot 6978 in Glu buffer, T0; curve still rising at log 3 (OD450 at most about 0.3), no plateau; unit from the axis Log[ng/mL]
Procedure: as §2

[11] = biological target: T1, human CTLA4 expressed on the cell …; experiment: FACS, cells expressing human CTLA4, assay pH 7.4, MFI; lot 6978 in Glu buffer, T0; unit from the axis Log[ng/mL]
Procedure: as §1

[12] = biological target: T1, human CTLA4 expressed on the cell …; experiment: FACS, cells expressing human CTLA4, assay pH 7.4, MFI; lot 6978 in His buffer, T0; unit from the axis Log[ng/mL]
Procedure: as §1

[13] = biological target: T2, recombinant human CTLA4 extracellular …; experiment: ELISA, wells coated with human CTLA4, assay pH 6.0; lot 6978 without test buffer; same column repeated in FIG. 9E and FIG. 9F; unit from the axis Log[ng/mL]
Procedure: as §2

EC50 [1]: 0.462 mg/L
EC50 [2]: 0.428 mg/L
EC50 [3]: 0.0101 mg/L
EC50 [4]: 0.537 mg/L
EC50 [5]: 0.615 mg/L
EC50 [6]: 0.0365 mg/L
EC50 [7]: 0.438 mg/L
EC50 [8]: 0.0154 mg/L
B1: BA-087-05-19 (antibody, V domains shown)
VH: EVQLVESGGGLVQPGGSLRLSCAASGFTFSHYTMHWVRQAPGKGLEWVSFISYDGNNKYYADSVKGRFTISRDNSKNTLYLQMNSLRAEDTAVYYCARTGWLGPFDYWGQGTLVTVSS
VL: AIQLTQSPSSLSASVGDRVTITCRASQYVGSSYLAWYLQKPGQSPQLLIYGAFSRATGIPARFSGSGSGTEFTLTISSLQSEDFAVYYCQQDGSSPWTFGQGTKVEIK
notes: Detected with anti-human IgG and a molecular weight of 146 kDa was used in SPR, so it was tested as a whole IgG; also called BA-087-05-019; BA-087-05-19 (# 6972)

EC50 [9]: 0.158 mg/L
EC50 [10]: 1.19 mg/L
EC50 [11]: 0.814 mg/L
EC50 [12]: 0.849 mg/L
EC50 [13]: 0.0222 mg/L
B2: BA-087-08-32 (antibody, V domains shown)
VH: EVQLVQSGAEVKKPGATVKISCKVSGFTFSHYTMHWIRQSPSRGLEWLGFISYDGNYKYYADSVKGRFTISRDNAKNSLYLQMNSLRAEDTAVYYCARTGWLGPFDYWGQGTLVTVSS
VL: EIVMTQSPATLSVSPGERATLSCRASQSVGSSYLAWYQQKPGKAPKLLIYGAFSRATGVPSRFSGSGSGTDFTLTISSLQPEDFATYYCQQDGSSPWTFGQGTKVEIK
notes: Detected with anti-human IgG and a molecular weight of 146 kDa was used in SPR, so it was tested as a whole IgG; also called BA-087-08-032; BA-087-08-32 (# 6978)
